B1: MicAstab (structured_RNA)
RNA: GAAAGACGCGCAUUUGUUAUCAUCAUCCCUGGGAAAGCGACCGUUUCCCUGGCCACUCACGAGUGGCCUUUUAAAA
B2: MicAstab + ompA leader (structured_RNA)
RNA 1: B1 RNA
RNA 2: GGGCCAGGGGUGCUCGGCAUAAGCCGAAGAUAUCGGUAGAGUUAAUAUUGAGCAGAUCCCCCGGUGAAGGAUUUAACCGUGUUAUCUCGUUGGAGAUAUUCAUGGCGUAUUUUGGAUGAUAACGAGGCGCAAAAAAUGAAAAAGACAGCUAUCGCGAUUGCAGUGGCA

Assays:
[1] = biological target: T1, Hfq (UniProt P0A6X3 1-102); assay: EMSA
[2] = biological target: T1, Hfq; assay: EMSA; remark: listed apart in the source

T1 sequence (P0A6X3 whole entry): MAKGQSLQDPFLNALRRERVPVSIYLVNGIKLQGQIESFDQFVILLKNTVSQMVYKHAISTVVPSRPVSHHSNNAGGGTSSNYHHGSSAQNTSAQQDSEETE

Binder | Kd [1] [nM] | binding result [2]
B1 | 1.5 | 
B2 |  | binds
